Experimental data from paper PMC3668522 (FEBS Open Bio, 2013).

Target: the molecule itself
Test: cross-linking; SDS-PAGE of the purified CTD polypeptide: 16-kDa dimer band beside the 8-kDa monomer band; dimer formation stimulated by the oxidizing agent Cu(II)-(1,10-phenanthroline)3 and cleaved by dithiothreitol (disulfide bond)

B1: C-terminal domain (CTD) polypeptide of Arabidopsis thaliana metal tolerant protein 1 (AtMTP1) (domain or fragment, UniProt Q9ZT63 320-398, looked up)
chain: MESTPREIDATKLEKGLLEMEEVVAVHELHIWAITVGKVLLACHVNIRPEADADMVLNKVIDYIRREYNISHVTIQIER
**Q.** For B1, which “stoichiometry N” value is on record?
**A.** The value was 2.
